This note sets out measurements from the RNAGym collection of RNA variant scans (doi:10.7554/elife.80360).

To fix the notation:
B1: CPEB3 Ribozyme (parent)
chain: GGGGGCCACAGCAGAAGCGUUCACGUCGCGGCCCCUGUCAGAUUCUGGUGAAUCUGCGAAUUCUGCUGU

Variants of B1 are the subject of the data set. Description: self-cleavage, relative activity (ratio to wild type); higher = more cleavage; co-transcriptional.
C27A A40G: the self-cleavage is 0.452. As to C27A A40U, the self-cleavage is 0.304. As for U26G C32A, the self-cleavage worked out at 0.552.

In the case of U26G C32G, the self-cleavage is 0.234.

As for C27G U43C, the self-cleavage stood at 0.239. C27G G41U: the self-cleavage came to 0.151. C27G G41A: the self-cleavage was found to be 0.154. Then U26C U62C, with 0.732; and U26C U62A, with 0.832; and C27A A42C, with 0.286.

In the case of C27A A42U, the self-cleavage is 0.379.

With C27A A42G, the self-cleavage is 0.419. U26G A59C: the self-cleavage came out at 0.36. Consider U26G A59G, for which the self-cleavage was 0.959. Take U26G A40G: the self-cleavage turned out to be 0.75. For U26G A40C, the self-cleavage amounted to 0.395. Then U26G A40U, with 0.602; and U26C G48A, with 0.982; and U26C G48C, with 0.988. In the case of C27G U49A, the self-cleavage was 0.209. Regarding C27G U49G, the self-cleavage amounted to 0.112. For C27G U49C the value was 0.22; for C27G A60G, 0.204; for C27G A60U, 0.181. In the case of C27G C57G, the self-cleavage was 0.175. Regarding C27G C57A, the self-cleavage amounted to 0.131.

For C27A C66A, the self-cleavage amounted to 0.334. Turning to C27A C66G, the self-cleavage is 0.327. On to C27G C35A, for which the self-cleavage was 0.124. For the variant C27G C35U, the self-cleavage stood at 0.179.

Consider C27G C35G, for which the self-cleavage is 0.171. For C27G U36A the value was 0.18. Then C27A U69G, with 0.825; and C27A U69C, with 0.955; and C27A U69A, with 0.843.

C27G G58U: the self-cleavage amounted to 0.193. Regarding C27G G58C, the self-cleavage turned out to be 0.231. U26G C33U: the self-cleavage is 0.833. In the case of U26G C33A, the self-cleavage was 0.827. Take U26G C33G: the self-cleavage is 0.437. Consider C27A C39U, for which the self-cleavage stood at 0.339.

Take C27A C39G: the self-cleavage turned out to be 0.346. Turning to C27A C39A, the self-cleavage worked out at 0.205. As to C27U A42G, the self-cleavage was 0.174. For the variant C27U A42C, the self-cleavage amounted to 0.27. With C27A G41C, the self-cleavage was 0.149.

With C27A G41A, the self-cleavage came to 0.196. On to U26G U64A, for which the self-cleavage amounted to 0.692.

In the case of U26G U64C, the self-cleavage was 0.756. On to C27A G65C, for which the self-cleavage is 0.288. For C27A G65U the value was 0.202; for C27A G65A, 0.255; for C27G C54U, 0.151.

As for C27G C54G, the self-cleavage came to 0.169.

With U26C G68A, the self-cleavage is 1.03.

On to U26C G68U, for which the self-cleavage was determined as 1.01. Then C27G U53C, with 0.134; and C27G U53A, with 0.221. For the variant C27G U53G, the self-cleavage is 0.267. For U26G C45A the value was 0.951.

For U26G C45G, the self-cleavage was 0.87.

In the case of C27A C63A, the self-cleavage was found to be 0.227. Regarding U26G U36G, the self-cleavage was 0.198.

With U26G U36C, the self-cleavage was determined as 0.42.

With C27U C29A, the self-cleavage was 0.192. As to C27A G47C, the self-cleavage came to 0.72. As to C27A G47U, the self-cleavage came out at 0.738. Then C27U C39A, with 0.186. In the case of U26G C34G, the self-cleavage was 0.409.

As for U26G C34U, the self-cleavage turned out to be 0.95. For C27A A52C the value was 0.556; for U26C U38A, 0.837. With U26C U38C, the self-cleavage is 0.925. As for U26C U38G, the self-cleavage amounted to 0.188. As to C27G C39U, the self-cleavage came out at 0.138. Regarding C27A G31C, the self-cleavage was found to be 0.181. Then U26G G28C, with 0.133; and U26G G30C, with 0.284; and U26G G30U, with 0.164. Regarding U26C G56U, the self-cleavage was 0.854. In the case of U26C G56C, the self-cleavage was determined as 0.634. For U26C U61A the value was 0.874. On to U26C U61G, for which the self-cleavage worked out at 0.693. Consider U26C U61C, for which the self-cleavage is 0.617. In the case of U26C U64A, the self-cleavage was found to be 0.768.

As to U26C U64C, the self-cleavage worked out at 0.688. For U26C U64G, the self-cleavage amounted to 0.752. With U26G G58U, the self-cleavage stood at 0.87. Turning to U26G G58A, the self-cleavage was determined as 0.557. On to C27G U46A, for which the self-cleavage amounted to 0.162.

With C27G U46G, the self-cleavage came to 0.188. For C27G U46C the value was 0.181. Regarding C27G A40C, the self-cleavage worked out at 0.258.

For the variant U26G U67C, the self-cleavage turned out to be 0.91. Take U26G U67G: the self-cleavage stood at 0.968.

For the variant U26G U67A, the self-cleavage amounted to 0.854. Take C27A G30C: the self-cleavage was 0.138. As for C27A G30A, the self-cleavage worked out at 0.176. For the variant C27U A52U, the self-cleavage was 0.291. For the variant C27U A52C, the self-cleavage came to 0.302. In the case of C27U A52G, the self-cleavage worked out at 0.415. Regarding U26C U46C, the self-cleavage was found to be 0.95. Turning to U26C U46G, the self-cleavage turned out to be 0.893. Regarding U26C U46A, the self-cleavage was 1.02. Then C27A U44A, with 0.439; and C27A U44G, with 0.295. Take C27A U44C: the self-cleavage was determined as 0.354. With U26G A42U, the self-cleavage turned out to be 0.828. Then U26G A42C, with 0.86; and C27A U53A, with 0.344. Then C27A U53C, with 0.213; and U26G A52U, with 0.868. On to U26G A52G, for which the self-cleavage stood at 0.914. For U26G A52C, the self-cleavage was 0.912. For C27A G37C, the self-cleavage amounted to 0.17. Then C27A G37U, with 0.17. For C27G G50A the value was 0.17; for C27G G50C, 0.141. Then C27G G50U, with 0.175.

For U26C U55A, the self-cleavage was 0.821. Consider U26C U55C, for which the self-cleavage worked out at 0.833.

On to U26G G48U, for which the self-cleavage was 0.923. On to C27A U49C, for which the self-cleavage came to 0.702. C27A U49G: the self-cleavage was determined as 0.59.

Consider U26G U46G, for which the self-cleavage is 0.86. Take U26G U46C: the self-cleavage amounted to 0.86. On to U26G U46A, for which the self-cleavage came out at 0.854. For the variant U26C G50U, the self-cleavage was determined as 0.956. With U26C G50C, the self-cleavage is 1. Regarding C27A U62A, the self-cleavage worked out at 0.288. For the variant C27A U62G, the self-cleavage was 0.241. As to C27A U62C, the self-cleavage was 0.365. Then C27A G50C, with 0.493. Take C27A G50A: the self-cleavage was 0.587. Consider C27A G50U, for which the self-cleavage came to 0.647. For C27U A51U, the self-cleavage turned out to be 0.303. Consider C27U A51G, for which the self-cleavage stood at 0.376. For the variant C27U A51C, the self-cleavage came out at 0.259. As for C27G G30A, the self-cleavage stood at 0.228.

For C27G G30C, the self-cleavage was found to be 0.279. For C27G G30U the value was 0.149; for U26G U43A, 0.766. For U26G U43G, the self-cleavage was found to be 0.801. Turning to U26G U43C, the self-cleavage was determined as 0.863. As for C27G C33G, the self-cleavage stood at 0.241.

For U26G C29U, the self-cleavage amounted to 0.318. Then U26G C29G, with 0.414; and C27G C32U, with 0.207.

In the case of C27G C32A, the self-cleavage turned out to be 0.201. Then C27G C32G, with 0.134; and U26G G50U, with 0.928.

Consider U26G G50A, for which the self-cleavage was 0.927. As for U26G G50C, the self-cleavage turned out to be 0.962. Regarding U26C U67G, the self-cleavage was 0.945. As to U26C U67C, the self-cleavage amounted to 0.968. As for U26C U67A, the self-cleavage came to 1.01. Then C27G U44G, with 0.155; and C27A U61C, with 0.191; and C27A U61G, with 0.367.

For C27A C45A, the self-cleavage was found to be 0.504. Regarding C27A C45G, the self-cleavage stood at 0.578. Then U26C U43G, with 0.735. Turning to C27G A59G, the self-cleavage is 0.259.

Regarding C27G A59C, the self-cleavage worked out at 0.151.

On to C27G A59U, for which the self-cleavage stood at 0.216.

For C27G G48A, the self-cleavage turned out to be 0.156. Turning to U26C U53C, the self-cleavage was 0.882.
